Experimental findings from article doi:10.1101/2021.02.22.432310 are described below.

The target in the assay is mGFP-UvrD (genomically integrated) (E. coli) (UniProt P03018). As to the kind of experiment: single-molecule fluorescence microscopy.

As usually defined, the stoichiometry N is the number of molecules, sites or subunits per partner or assembly.

For “mGFP-UvrD (genomically integrated) (from UniProt P03018 1-720) (enzyme)”, the stoichiometry N came to 4.
